Data published in EP4653467A1 (Wuhan Zhaozhi Biotechnology Co., Ltd., dated 2025).

Target: T1, CD22 on RAJI cells (UniProt P20273 20-847, limits assumed)
T1 sequence (looked up): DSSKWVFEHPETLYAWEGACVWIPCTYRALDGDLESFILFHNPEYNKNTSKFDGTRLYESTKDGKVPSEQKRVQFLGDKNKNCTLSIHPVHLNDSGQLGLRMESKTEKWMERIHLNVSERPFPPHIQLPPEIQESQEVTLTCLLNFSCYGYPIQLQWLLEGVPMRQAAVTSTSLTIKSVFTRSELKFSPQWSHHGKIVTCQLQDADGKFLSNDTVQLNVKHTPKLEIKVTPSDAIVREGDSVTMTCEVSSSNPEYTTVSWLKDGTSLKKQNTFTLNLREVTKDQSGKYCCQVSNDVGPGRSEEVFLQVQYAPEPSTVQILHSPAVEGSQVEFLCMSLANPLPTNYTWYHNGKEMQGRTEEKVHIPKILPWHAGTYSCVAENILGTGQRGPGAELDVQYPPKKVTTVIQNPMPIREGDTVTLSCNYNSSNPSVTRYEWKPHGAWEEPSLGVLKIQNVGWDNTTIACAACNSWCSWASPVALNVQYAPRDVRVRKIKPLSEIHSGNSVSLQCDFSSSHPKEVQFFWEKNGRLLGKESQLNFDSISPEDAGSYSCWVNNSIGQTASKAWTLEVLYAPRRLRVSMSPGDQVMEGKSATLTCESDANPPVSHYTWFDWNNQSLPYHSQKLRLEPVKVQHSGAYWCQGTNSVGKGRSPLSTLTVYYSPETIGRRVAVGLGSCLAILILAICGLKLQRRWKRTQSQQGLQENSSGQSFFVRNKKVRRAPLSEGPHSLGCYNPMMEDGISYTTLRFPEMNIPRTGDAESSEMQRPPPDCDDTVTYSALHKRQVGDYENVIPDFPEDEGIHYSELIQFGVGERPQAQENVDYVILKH
Experiment: cell-based or functional assay

B1: CAR22 (CAR molecule targeting CD22) (other)
chain: MALPVTALLLPLALLLHAAIPDTEVQLVESGGGLVKPGGSLKLSCAASGFAFSIYDMSWVRQTPEKRLEWVAYISSGGGTYYPDTVKGRFTISRDNAKNTLYLQMSSLKSEDTAMYYCARHSGYGTHWGVLFAYWGQGTLVTVSAGGGGSGGGGSGGGGSDIQMTQTTSSLSASLGDRVTISCRASQDISNYLNWYQQKPDGTVKLLIYYTSILHSGVPSRFSGSGSGTDYSLTISNLEQEDFATYFCQQGNTLPWTFGGGTKLEIKATTTPAPRPPTPAPTIASQPLSLRPEACRPAAGGAVHTRGLDFACDFWVLVVVGGVLACYSLLVTVAFIIFWVRSKRSRLLHSDYMNMTPRRPGPTRKHYQPYAPPRDFAAYRSKRGRKKLLYIFKQPFMRPVQTTQEEDGCSCRFPEEEEGGCELRVKFSRSADAPAYQQGQNQLYNELNLGRREEYDVLDKRRGRDPEMGGKPRRKNPQEGLYNELQKDKMAEAYSEIGMKGERRRGKGHDGLYQGLSTATKDTYDALHMQALPPR
- target cell lysis (calcein release), CAR-T cells on RAJI positive target cells, effector-to-target ratio 2:1: 11.5%
- target cell lysis (calcein release), CAR-T cells on RAJI positive target cells, effector-to-target ratio 10:1: 46.9%
- target cell lysis (calcein release), CAR-T cells on RAJI positive target cells, effector-to-target ratio 50:1: 94.4%
